In the data set the target is EPAS1 (HIF-2alpha) (Homo sapiens) (UniProt Q99814). The experiment in a line: cell_activity. The settings on record: luciferase reporter, 6 ug plasmid, BAEC; direct binding not shown. (Reporter assays use an easily measured gene product as a stand-in for the process of interest.)
EPAS1 (HIF-2alpha) (Homo sapiens), sequence (Q99814 whole entry): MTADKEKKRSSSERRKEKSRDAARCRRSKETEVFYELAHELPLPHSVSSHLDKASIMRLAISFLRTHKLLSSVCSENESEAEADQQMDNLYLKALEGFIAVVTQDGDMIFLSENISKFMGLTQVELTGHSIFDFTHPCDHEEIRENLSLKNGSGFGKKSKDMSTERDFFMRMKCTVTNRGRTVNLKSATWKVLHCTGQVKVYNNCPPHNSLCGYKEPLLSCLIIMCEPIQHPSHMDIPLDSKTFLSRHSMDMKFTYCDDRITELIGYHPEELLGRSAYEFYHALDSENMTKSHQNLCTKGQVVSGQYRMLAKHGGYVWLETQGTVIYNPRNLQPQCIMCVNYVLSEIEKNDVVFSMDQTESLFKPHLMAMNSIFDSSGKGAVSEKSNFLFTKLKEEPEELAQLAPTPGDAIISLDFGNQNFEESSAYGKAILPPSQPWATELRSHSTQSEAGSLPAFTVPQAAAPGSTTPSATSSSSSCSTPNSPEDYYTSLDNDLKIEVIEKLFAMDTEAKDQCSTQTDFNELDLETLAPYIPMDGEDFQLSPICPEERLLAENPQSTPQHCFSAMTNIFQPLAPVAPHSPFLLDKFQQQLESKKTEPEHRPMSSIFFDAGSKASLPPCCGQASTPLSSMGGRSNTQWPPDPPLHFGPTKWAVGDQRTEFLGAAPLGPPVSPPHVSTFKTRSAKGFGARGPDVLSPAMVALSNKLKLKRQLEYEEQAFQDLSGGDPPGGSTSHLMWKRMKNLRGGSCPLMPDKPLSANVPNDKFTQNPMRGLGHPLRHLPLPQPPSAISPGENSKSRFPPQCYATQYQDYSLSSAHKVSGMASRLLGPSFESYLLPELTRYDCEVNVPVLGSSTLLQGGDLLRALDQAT

Substance KDR/flk-1 promoter -4 kb to +296 returned an activity of 12.9 fold.

The values above are taken from US6395548.
